Laboratory results published in PMC4132019.

Biological target: CRM1-HA (chromosome region maintenance 1) (human (HeLa cell cDNA)) (UniProt O14980)
Experiment: pull-down

Sequence of UniProt O14980 (O14980 whole entry): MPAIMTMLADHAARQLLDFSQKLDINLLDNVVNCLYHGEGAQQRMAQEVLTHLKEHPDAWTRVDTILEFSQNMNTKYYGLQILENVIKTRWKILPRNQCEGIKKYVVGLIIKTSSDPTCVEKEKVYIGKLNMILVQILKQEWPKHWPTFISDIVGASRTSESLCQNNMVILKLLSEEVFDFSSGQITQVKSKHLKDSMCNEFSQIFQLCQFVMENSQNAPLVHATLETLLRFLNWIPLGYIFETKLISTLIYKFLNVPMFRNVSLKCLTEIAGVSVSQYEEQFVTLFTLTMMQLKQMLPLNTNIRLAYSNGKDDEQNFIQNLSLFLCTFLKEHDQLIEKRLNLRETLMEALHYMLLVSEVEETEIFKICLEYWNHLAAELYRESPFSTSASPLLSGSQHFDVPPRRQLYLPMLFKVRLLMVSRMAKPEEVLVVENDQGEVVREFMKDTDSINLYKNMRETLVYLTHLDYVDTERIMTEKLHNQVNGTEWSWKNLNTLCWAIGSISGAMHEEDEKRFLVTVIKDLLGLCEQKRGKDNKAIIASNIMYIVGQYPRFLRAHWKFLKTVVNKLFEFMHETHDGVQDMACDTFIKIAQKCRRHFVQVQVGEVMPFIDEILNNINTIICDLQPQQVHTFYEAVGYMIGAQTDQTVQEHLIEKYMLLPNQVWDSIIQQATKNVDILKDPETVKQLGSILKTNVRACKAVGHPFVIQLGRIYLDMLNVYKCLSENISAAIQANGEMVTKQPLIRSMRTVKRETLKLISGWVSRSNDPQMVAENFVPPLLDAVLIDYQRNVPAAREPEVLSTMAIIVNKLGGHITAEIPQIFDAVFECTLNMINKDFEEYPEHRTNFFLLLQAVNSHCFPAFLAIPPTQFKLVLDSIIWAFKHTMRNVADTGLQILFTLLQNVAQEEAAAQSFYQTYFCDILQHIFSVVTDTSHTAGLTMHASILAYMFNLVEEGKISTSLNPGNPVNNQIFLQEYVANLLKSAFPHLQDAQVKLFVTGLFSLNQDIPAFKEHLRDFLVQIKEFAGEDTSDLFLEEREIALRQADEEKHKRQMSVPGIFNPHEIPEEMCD

In the case of “NP-FLAG (wild-type nucleoprotein of influenza A/WSN/33) (from UniProt P15682 1-498) (natural protein)”, the CRM1 binding (%WT) is reported as 100 % of WT.
